According to paper PMC11969024, “Development of chemokine network inhibitors using combinatorial saturation mutagenesis” (Communications Biology, 2025):
Values belong to the molecule of their own block, whether it stands above or below them.

Assays:
THP1 cells = test: Chemokine dose-response, THP1 cell migration; type: cell-based, human; conditions: mean of biological replicates (2-7); for Mean pEC80: 3-parameter log-logistic fit, maximum fixed at 100%
Procedure: Cell lines were confirmed mycoplasma free by monthly testing using a MycoAlert^TM kit (LT07-118, Lonza) following the manufacturer’s instructions. THP1 cells: THP1 cells (ECACC 88081201, a human monocyte leukemia cell line[51]) were obtained from ECACC and were cultured in T175 flasks at 0.3-1 × 10^6 cells/mL in Roswell Park Memorial Institute (RPMI) 1640 medium (R0883, Sigma) with 10% FBS (F9665, Sigma) and 5mM L-glutamine (G7513, Sigma), 37 °C, 5% CO2. J:CXCR1 cells: The J:CXCR1 cell line was cultured in the same manner as THP1 cells at 0.15-1 × 10^6 cells per mL[37]. Activated T-cells: T-cells were isolated, activated and expanded as follows. Briefly, density gradient centrifugation using Lymphoprep^TM density gradient medium (07801, […] Technologies) and a SepMate^TM isolation tube (85450, […] Technologies) was used to isolate peripheral blood mononuclear cells from human leukocyte cones. Two rounds of purification using a human CD8 + T-cell isolation kit (480011, BioLegend) were used to isolate CD8 + T-cells from peripheral blood mononuclear cells. Activation of CD8 + T-cells was performed in ImmunoCult^TM-XF T-cell expansion medium (10982, […] Technologies) with an anti-CD3/anti-CD28 T-cell activator at 25 μl/ml (10991, […] Technologies), supplemented with 10 ng/ml recombinant human IL-2 (200-02, PeproTech) with 1% penicillin/streptomycin. T-cells were passaged every 2–3 days in TexMACS medium (130-097-196, Miltenyi Biotec), supplemented with 10 ng/ml human IL-2 (200-05-250, Peprotech) and incubated at 37 °C in 5% CO2. CD8 + T-cells were frozen at day 10-13 after initial activation, at 20×10^6 cell/ml in TexMACS medium supplemented with 10% DMSO (D2650, Sigma) in liquid nitrogen. Activated CD8^+ T-cells were recovered in TexMACs medium at 0.3 × 10^6 cell/ml and incubated at 37 °C in 5% CO2, 24 h prior to use. For buffy coat experiments a mixture of primary human monocytes, granulocytes and lymphocytes was isolated from human buffy coat. Briefly, RBCs were sedimented in HetaSep (07806, […] Technologies) with 1 mL of HetaSep per 5 mL of blood for 15 min at 37 °C. The buffy coat layer was collected from the top and washed in 50 ml MACS buffer (PBS (P4417, Sigma), 0.5% BSA (A7030, Sigma), 0.075% EDTA (E5134, Sigma), pH 7.2), by centrifugation at 2000 g for 10 min at room temperature. The pellet was resuspended in 10 mL of 1x RBC lysis solution (130-094-183, Miltenyi Biotec) and lysed for 10 min at room temperature. The cells were then washed in MACS buffer twice as above. The final pellet was resuspended in 1 mL of MACS buffer per 5 mL of initial blood volume and counted using cell size FSC-H/SSC-H parameters with gate settings previously defined by immunostaining (see below). The leukocytes were then resuspended in assay buffer for cell migration and used within 30 min of isolation.
Cell counts were determined using an ATTUNE NxT Flow Cytometer with Cytkick autosampler (ThermoFisher), based on cell size parameters FSC-H/SSC-H, with previously defined gate settings. FSC-H/SSC-H gate settings for primary white blood cells from buffy coats were determined using flow cytometry to establish the granulocyte, monocyte and lymphocyte populations (Supplementary Fig. 13). Briefly, cells were labelled with anti-CD3 (Miltenyi Biotec, 130-113-135) to identify the T cell population, anti-CD14 (Miltenyi Biotec, 130-110-578) to identify the monocyte population, and with anti-CD16 (Miltenyi Biotec, 130-113-951) to identify the granulocyte population. Negative control cells were labelled with anti-human IgG1 (Miltenyi Biotec, 130-113-434). All antibodies were allophycocyanin (APC) conjugated. 100,000 white blood cells were added to Eppendorf tubes and centrifuged at 300 g for 3 min. The supernatant was discarded, and the cells resuspended in 98 µL of MACS buffer (1× PBS, 2 mM EDTA and 0.5% BSA, sterile filtered). 2 µl of antibody was added to the cells. […]

activated T-cells (ATC) = test: Chemokine dose-response, activated T-cell (ATC) migration; type: cell-based, human; conditions: mean of biological replicates (3-6)
Procedure: Cell lines were confirmed mycoplasma free by monthly testing using a MycoAlert^TM kit (LT07-118, Lonza) following the manufacturer’s instructions. THP1 cells: THP1 cells (ECACC 88081201, a human monocyte leukemia cell line[51]) were obtained from ECACC and were cultured in T175 flasks at 0.3-1 × 10^6 cells/mL in Roswell Park Memorial Institute (RPMI) 1640 medium (R0883, Sigma) with 10% FBS (F9665, Sigma) and 5mM L-glutamine (G7513, Sigma), 37 °C, 5% CO2. J:CXCR1 cells: The J:CXCR1 cell line was cultured in the same manner as THP1 cells at 0.15-1 × 10^6 cells per mL[37]. Activated T-cells: T-cells were isolated, activated and expanded as follows. […] The final pellet was resuspended in 1 mL of MACS buffer per 5 mL of initial blood volume and counted using cell size FSC-H/SSC-H parameters with gate settings previously defined by immunostaining (see below). […]
Cell counts were determined using an ATTUNE NxT Flow Cytometer with Cytkick autosampler (ThermoFisher), based on cell size parameters FSC-H/SSC-H, with previously defined gate settings. FSC-H/SSC-H gate settings for primary white blood cells from buffy coats were determined using flow cytometry to establish the granulocyte, monocyte and lymphocyte populations (Supplementary Fig. 13). […]

Mean pEC50 (activated T-cells (ATC)): 7.98 [M]
B2: CCL21: human chemokine, Peprotech 300-35A (protein)
chain: SDGGAQDCCLKYSQRKIPAKVVRSYRKQEPSLGCSIPAILFLPRKRSQAELCADPKELWVQQLMQHLDKTPSPQKPAQGCRKDRGASKTGKKGKGSKGCKRTERSQTPKGP
Mean pEC80 (activated T-cells (ATC)): 7.42 [M]

Mean pEC50 (THP1 cells): 8.97 [M]
B4: CCL23: human chemokine, Biolegend 587002 (protein, UniProt P55773 22-120, looked up)
C-C motif chemokine 23: RVTKDAETEFMMSKLPLENPVLLDRFHATSADCCISYTPRSIPCSLLESYFETNSECSKPGVIFLTKKGRRFCANPSDKQVQVCMRMLKLDTRIKTRKN
Mean pEC80 (THP1 cells): 8.66 [M]

Further lines, the molecule ahead of its results:

B1: CCL8: human chemokine, Peprotech 300-15 (protein, UniProt P80075 24-99, looked up)
C-C motif chemokine 8: QPDSVSIPITCCFNVINRKIPIQRLESYTRITNIQCPKEAVIFKTKRGKEVCADPKERWVRDSMKHLDQIFQNLKP
Mean pEC80 (THP1 cells): 7.84 [M] | Mean pEC50 (THP1 cells): 8.19 [M]

B3: CCL14: human chemokine, Peprotech 300-38B (protein, UniProt Q16627 20-93, looked up)
C-C motif chemokine 14: TKTESSSRGPYHPSECCFTYTTYKIPRQRIMDYYETNSQCSKPGIVFITKRGHSVCTNPSDKWVQDYIKDMKEN
Mean pEC80 (THP1 cells): 9.23 [M] | Mean pEC50 (THP1 cells): 9.61 [M]
